The values that follow come from patent US20230382979A1 (ADAPTIVE BIOTECHNOLOGIES, published 2023).

First the molecules themselves.
B1: antibody 2598 (antibody, V domains shown)
VH: QVQLQESGPGLVKPSGTLSLTCVVSGGSISSSNWWSWVRQPPGKGLEWIGETFHSGSFNYNPSLKSRVTISVDKSKNQFSLKLSSVTAADTAIYYCATTRVGYEGHFYYYGMDVWGQGTTVTVSS
VL: DIQMTQSPSSVSASVGDRVTITCRASQGISSWLAWYQQKPGKAPKLLIYAASSLQSGVPSRFSGSGSGTDFTLTISSLQPEDFATYYCQQANRFPWTFGQGTKVEIK
B2: antibody 1671 (antibody, V domains shown)
VH: EVQLVESGGGLVKPGGSLRLSCAASGFTFSTYNMNWVRQAPGKGLEWVSSISSNSNYIYYADSMKGRFTISRDNAKNSLYLQMNSLRAEDTAVYYCARDMDPLPYFDWLLYAFDVWGQGTMVTVSS
VL: EIVLTQSPGTLSLSPGERATLSCRASQSVSGSYLAWYQQKPGQAPRLLIYGASSRATGIPDRFSGSGSGTDFTLTISRLEPEDFAVYYCQQYGSPIFTFGPGTKVDIK
B3: antibody 1238 (antibody, V domains shown)
VH: QVQLVQSGSELKKPGASVKVSCKASGYTFTNYGMNWVRQAPGQGLEWMGWINTNTGNPTNAQGFTGRFVFSLDTSVSTAYLQINSLKGEDTAVYYCARVADTGEMDVWGQGTTVTVSS
VL: SYELTQPPSVSVSPGQTARITCSGDALPKQYAYWYQQKPGQAPVLVIYKDSERPSGIPERFSGSSSGTTVTLTISGVQAEDEADYYCQSADSSGSYNWVFGGGTKLTIL
B4: antibody 2646 (antibody, V domains shown)
VH: QVQLVQSGAEVKKPGASVKVSCKVSGYTLTELSIHWVRQAPGKGLEWMGGFDPEDAETIYAQKFQGRVTMTEDTSTDTAYMELSSLRSEDTAVYYCATATAVAGTVFNYQYHYGLDFWGQGTTVTVSS
VL: not shown
B5: antibody 2866 (antibody, V domains shown)
VH: QVQLVQSGAEVKKPGSSVKVSCKASGGTFSSYSISWVRQAPGQGLEWMGGLAPIFHTPNYAQKFQGRVTITADESTSTAYMELSSLRSEDTAVYYCARVAGAGWGVYGAFDYWGQGTLVTVSS
VL: not shown
B6: antibody 2854 (antibody, V domains shown)
VH: QVQLVQSGAEVKKPGSSVKVSCKASGGTFSSYAISWVRQAPGQGLEWMGGIIPIFHTANYAQKFQGRVTITADESTSTTYVELSSLRSEDTAMYYCATLPITIFGEEYSFDNWGQGTLVTVSS
VL: DVVMTQSPLSLPVTLGQPASISCRSSQSLVHSDGNTYLSWFQQRPGQSPRRLIYKVSDRDSGVPDRFSGSGSGTDFTLKISRVEAEDVGIYYCMQGTHWPPLTFGGGTKVEIK
B7: antibody 2019 (antibody, V domains shown)
VH: QVQLVESGGGVVQPGGSLSLSCAASGLSFSSYGMHWVRQAPGKGLEWVAFIRYDVSNKYYADSVKGRFTISRDNSKNTLYLQMNSLRVEDTAVYYCATWAPLDDGMDVWGQGTTVTVSS
VL: B3 VL with S51T, A90G, S95T, Y96F, N97Y, W98V, I108V
B8: antibody 1871 (antibody, V domains shown)
VH: EVQLVESGGGLVKPGGSLRLSCVASGFSFSIYSMNWVRQAPGKGLEWVSYISSSSSYKYYADSVKGRFSVSRDNAKNSLYLQLNGLRAEDTAVYYCARDGYCPKGVCTYYGMDVWGQGTTVTVSA
VL: EIVMTQSPATLSVSPGERVTLSCRASQSVRSRLAWFQQKPGQAPRLLIYDASIRATGIPARFSGSGSGTEFTLIISSLQSEDFAVYYCQQYDNWPPAYTFGQGTKLEIK
B9: antibody 1814 (antibody, V domains shown)
VH: QVQLQESGPGLVKPSETLSLTCSVSGGSINYYYWSWIRQTPGQGLEWIGFIYSSGTTNYNPSLKSRVTMSKDTAKKQFSLKLTSVTAADSAVYYCARHSRSCTNGVCQTYYYYALDVWGHGTTVTVSS
VL: QSVLTQPPSVSGAPGQRVTISCTGSGSNIGSGYDVHWYQQLPGRAPKLLIYRNRNRPSGVPDRFSGSKSGTSASLAIAGLQSEDEGDYFCQSYDGRLGESAVFGGGTRLTVL
B10: antibody 1815 (antibody, V domains shown)
VH: B9 VH with Q39K, T40S, Q43K, T68S, K71I, D72G, A74S, K76R, T83S
VL: QSVLTQPPSVSGAPGQRVTISCTGSSSNIGAGYDVHWYQQLPGTAPKLLIYANTHRPSGVPDRFSASKSGTSASLAIAGLQAEDEGDYYCQSYDGSLSESAVFGGGTRLTVL
B11: antibody 1823 (antibody, V domains shown)
VH: B8 VH with S30G, I31L, S33T, S55T, F68V, A88V, K104N, V106I
VL: EIVMTQSPATLSVSPGERATLSCRASQSVSSNLAWYQQKPGQAPRLLIYGASTRATGIPARFSGSGSGTEFTLTITGLQSEDFAVYYCQQYDKWPPAYSFGQGTKVEIK
B12: antibody 2788 (antibody, V domains shown)
VH: QVQLVQSGAEVKKPGASVKVSCKVSGYTLIELSMHWVRQAPGKGLEWMGGFDPEGAETIYAQKFQGRVTMTEDTSTDTAYMELSSLRSDDTAVYYCATGPAVFAANWFDPWGQGTLVTVSS
VL: QSALTQPPSASGSPGQSVTISCTGTSSDIGNYNNVSWYQQHPGKAPKLMIYDVIKRPSGVPDRFSGSKSGNTASLTVSGLQAEDEADYYCSSYAGKSYVFGTGTKVTVL

Residue numbers refer to the chain shown, from its start.

One experiment addresses T1, S1 subunit of the SARS-CoV-2 spike protein, WA01/2020 strain (SARS-CoV-2, WA01/2020 strain, UniProt P0DTC2 16-685).
Assay: not given
The term Kd denotes a measure of binding affinity in units of concentration. Consider B1, for which the Kd worked out at 0.00823 nM.

On to B2, for which the Kd turned out to be 0.0506 nM.

B3: the Kd is 0.027 nM.

As to B4, binding was characterised by a dissociation constant (Kd) of 0.00296 nM.

The next experiment deals with T2, SARS-CoV-2 spike (S) protein trimer, WA01/2020 strain (SARS-CoV-2, WA01/2020 strain, UniProt P0DTC2 16-1213).
Assay: not given
B5 showed a Kd of 0.154 nM. That is a sub-nanomolar value.

For the molecule B6, binding was put at a Kd of 0.112 nM.

In turn, B7 displayed a Kd of 0.057 nM.

A further experiment has as its target SARS-CoV-2 spike protein, WA1/2020, borne on lentiviral pseudovirus (SARS-CoV-2, WA01/2020 strain, UniProt P0DTC2 14-1273). As to the kind of experiment: cell-based or functional assay.
Take B8: the “Pseudo Neut, WA1/2020 IC50 (pM)” value was found to be 440 pM.

For B9, the “Pseudo Neut, WA1/2020 IC50 (pM)” value amounted to 171 pM.

On to B10, for which the “Pseudo Neut, WA1/2020 IC50 (pM)” value worked out at 10.2 pM.

Another experiment has as its target SARS-CoV (2003) spike protein borne on lentiviral pseudovirus (SARS-CoV (2003), UniProt P59594 14-1255). As to the kind of experiment: cell-based or functional assay.
Consider B11, for which the “Pseudo Neut, SARS-CoV 2003 IC50” value stood at 210 nM.

Turning to B8, the “Pseudo Neut, SARS-CoV 2003 IC50” value is 30 nM.

Take B9: the “Pseudo Neut, SARS-CoV 2003 IC50” value was 6.5 nM.

Regarding B10, the “Pseudo Neut, SARS-CoV 2003 IC50” value was 26 nM.

Another experiment has as its target T1, S1 subunit of the SARS-CoV-2 spike …. As to the kind of experiment: ELISA, antibody at 0.1 ug/mL. On the technique in general: An ELISA detects its analyte on a solid surface through an enzyme-linked reagent.
As to B5, the binding result is on record as “no binding (tested: 0.1 ug/mL)”.

On to B6, for which the binding result is reported as “no binding (tested: 0.1 ug/mL)”.

Take B7: the binding result is listed as “no binding (tested: 0.1 ug/mL)”.

The target of the next experiment is T3, S2 subunit of the SARS-CoV-2 spike protein, WA01/2020 strain (SARS-CoV-2, WA01/2020 strain, UniProt P0DTC2 686-1213). Nature of the experiment: ELISA, antibody at 0.1 ug/mL.
As for B5, the binding result is on record as “no binding (tested: 0.1 ug/mL)”.

For B12, the binding result was “no binding (tested: 0.1 ug/mL)”.

In the case of B6, the binding result is “no binding (tested: 0.1 ug/mL)”.

B7: the binding result was “no binding (tested: 0.1 ug/mL)”.

As for B3, the binding result is reported as “no binding (tested: 0.1 ug/mL)”.

The next experiment has as its target T4, SARS-CoV-2 nucleocapsid (N) protein (SARS-CoV-2, UniProt P0DTC9 1-419). As to the kind of experiment: ELISA, antibody at 0.1 ug/mL.
For the molecule B5, the binding result is “no binding (tested: 0.1 ug/mL)”.

For the molecule B12, the binding result is “no binding (tested: 0.1 ug/mL)”.

As to B6, the binding result is “no binding (tested: 0.1 ug/mL)”.

As for B7, the binding result is “no binding (tested: 0.1 ug/mL)”.

As for B3, the binding result was “no binding (tested: 0.1 ug/mL)”.

In a further experiment the target is T3, S2 subunit of the SARS-CoV-2 spike …. As to the kind of experiment: ELISA on S2 (S2 Binding EC50).
In general, EC50 refers to the concentration needed to bring the measured effect to its halfway point. Read a high EC50 as a need for much substance. For the molecule B11, the EC50 came to 0.614 nM.

Molecule B8 displayed an EC50 of 0.103 nM. This EC50 lies about 6-fold lower than the previous one.

In the case of B9, the midpoint of the response, the EC50, lay at 0.077 nM.

The molecule B10 displayed an EC50 of 0.127 nM.

In a further experiment the target is T1, S1 subunit of the SARS-CoV-2 spike …. As to the kind of experiment: dose-response ELISA on coated antigen.
B12 came in with an EC50 of 0.058 nM.

B1 yielded an EC50 of 0.084 nM.

The molecule B3 came in with an EC50 of 0.028 nM.

B4: the EC50 turned out to be 0.033 nM.

The target in another experiment is T2, SARS-CoV-2 spike (S) protein trimer, …. As to the kind of experiment: dose-response ELISA on coated antigen.
The molecule B5 returned an EC50 of 0.182 nM.

B12 came in with an EC50 of 0.021 nM.

Consider B6, for which a half-maximal effect (EC50) was put at 0.152 nM. Compared with the last molecule, the EC50 is about 7.2-fold higher.

Molecule B1 registered an EC50 of 0.043 nM.

Turning to B7, the EC50 is 0.024 nM.

Molecule B3 returned an EC50 of 0.069 nM.

In turn, B4 came in with an EC50 of 0.024 nM.

The next experiment concerns the target T1, S1 subunit of the SARS-CoV-2 spike …. Nature of the experiment: ELISA screening, antibody concentration not given.
In the case of B8, the binding result is “no binding (tested: not printed)”.

Consider B9, for which the binding result is reported as “no binding (tested: not printed)”.

As to B10, the binding result is “no binding (tested: not printed)”.

The target in another experiment is T4, SARS-CoV-2 nucleocapsid (N) protein. Nature of the experiment: ELISA screening, antibody concentration not given.
As for B8, the binding result is “no binding (tested: not printed)”.

Regarding B9, the binding result is “no binding (tested: not printed)”.

For the molecule B10, the binding result is “no binding (tested: not printed)”.

Another experiment has as its target T3, S2 subunit of the SARS-CoV-2 spike …. As to the kind of experiment: dose-response ELISA; antigen taken from the column 'Structural data'.
B11 showed an EC50 of 0.614 nM.

In turn, B8 gave an EC50 of 0.103 nM.

For B9, it took 0.077 nM to reach a half-maximal effect (EC50).

With B10, the EC50 amounted to 0.127 nM.
